From patent US20230193225A1, “NEW USES OF A MUTATED LACTONASE, AND COMPOSITIONS” (FONDATION MEDITERRANEE INFECTION, priority 2019, published 2023)
Entries after “also recorded” stand apart in the source; their conditions may differ.

Tests used:
[1] = tested on: Pseudomonas aeruginosa UCBPP-PA14 biofilm; assay: MBEC (Minimal Biofilm Eradication Concentration) assay; format: cell-based; conditions: for MBEC: P. aeruginosa UCBPP-PA14 biofilm; for factor of decrease of the concentration required to eliminate the biofilms in presence of SsoPox-W263I: P. aeruginosa biofilms, with vs without SsoPox-W263I
Protocol: (§1) The doses of antimicrobial agents required to eliminate bacterial biofilms are determined using the “MBEC (Minimal Biofilm Eradication Concentration) Assay TM” technique developed by Innovotech (Alberta, Canada) according to the supplier's data.
(§2) Bacterial biofilms are formed by bacterial growth in a medium and conditions adapted to the bacteria studied in the presence or absence of the lactonase SsoPox-W263I of sequence SEQ ID NO: 2.
(§3) Bacteria are pre-cultured for 6 hours in oxygenated flasks under the conditions indicated in Table 1 and then MBEC plates are plated by diluting the pre-culture to 1:1000 in the presence or absence of SsoPox-W263I lactonase at 0.5 mg/mL. After 24 hours of growth, the bacterial biofilms formed on the spikes of the MBEC plate cover are rinsed by immersion for 5 minutes in a buffer solution (Table 1). The biofilms are then immersed in a buffer solution containing antimicrobial agents (disinfectants, bactericidal or bacteriostatic antibiotics, bacteriophages, biocides) for a period of time representative of the mechanism of action of the antimicrobial agent studied (1.5 h for antiseptics, 3 h for antibiotics, 4 h for phages). After immersion in the antimicrobial agents, the bacterial biofilms were rinsed for 5 minutes in a buffer solution and then incubated for 1 hour in a nutrient medium adapted to the bacteria studied and containing detergents to detach the biofilms (Table 1). After 1 hour of incubation, the bacteria detached from the biofilm and thus present in the wells of the MBEC plate are serially diluted and plated on suitable nutrient agar to perform bacterial counts and determine the number of bacteria that survived the combined treatment of the mutated SsoPox-W263I enzyme and the antimicrobial agent (FIG. 1). The MBEC is the minimum concentration of antimicrobial agent to eradicate the bacteria in the biofilm.

P. aeruginosa biofilms = assay: Enumeration of bacteria recovered from biofilms after antiseptic or bleach treatment; format: cell-based, Pseudomonas aeruginosa; conditions: for bacteria recovered from the biofilm: 10 mM H2O2 for 1.5 hours
Protocol: as §2, §3

[2] = tested on: Pseudomonas aeruginosa UCBPP-PA14 biofilm; assay: MBEC (Minimal Biofilm Eradication Concentration) assay; format: cell-based; conditions: control sample with inactive variant SsoPox-5A8
[3] = tested on: Chromobacterium violaceum ATCC-12472 biofilm; assay: as above; format: cell-based; conditions: C. violaceum ATCC-12472 biofilm
Protocol: as §1, §2, §3

[4] = tested on: Pseudomonas aeruginosa PA14; assay: Susceptibility to Intesti phage cocktail; format: cell-based; conditions: enzyme 0.5 mg/mL, phage cocktail 0 to 50% (vol/vol)
Protocol: FIG. 2: Increased susceptibility of Pseudomonas aeruginosa PA14 to Intesti phage cocktail.
as §3
The Intesti phage cocktail consists of a mixture of sterile filtrates of phages directed against Shigella flexneri (serovariants 1, 2, 3, 4, 6), Shigellasi, Proteus vulgaris, Proteus mirabilis, Enterococcus, Staphylococcus, Pseudomonas aeruginosa and excipients such as 8-hydroxyquinoline sulfate monohydrate at 0.0001 g/ml (estimated content) and is marketed by Intesti-bacteriophage, Microgen, Russia

[5] = tested on: CRISPR-Cas system genes cas1, cas3, csy1, csy2, csy3 and csy4 in P. aeruginosa PA14 and clinical isolates; assay: Gene expression of the CRISPR-Cas system (RT-PCR); format: cell-based, Pseudomonas aeruginosa; conditions: vs inactive SsoPox-5A8
Protocol: (§4) FIG. 3: Expression changes of the CRISPR-Cas system. Expression of the CRISPR-Cas system genes casl, cas3, csy1, csy2, csy3 and csy4 was measured for the P. aeruginosa model strain PA14 as well as for clinical isolates from diabetic foot infections (All, B10, C5, C11, D10 and F3) and for the marine bacterium Chromobacterium violaceum CV12472. […] Error bars represent variations for 2 technical duplicates of 2 biological replicates. *p-values<0.05, *p-values<0.01, ***p-values<0.001 by Student's t-test.
(§5) After 16 hours of culture (stationary phase), the bacteria were recovered by centrifugation.
RNAs were extracted and purified with the PureLink® RNA mini kit (ThermoFisher) according to the supplier's recommendations and then treated with the TURBO DNA-free™ kit (ThermoFisher) to remove genomic DNA contamination. Samples were checked for quality by 1.5% agarose gel migration and the amount of nucleic acid was measured with a NanoDrop 2000 spectrophotometer (Thermo Scientific) at OD260 nm. Complementary DNAs (cDNAs) were synthesised using the TaqMan® Reverse Transcription Reagents kit (ThermoFisher) according to the manufacturer's recommendations. RT-PCR was then performed using the LuminoCt® SYBR® Green qPCR ReadyMix™ kit and a CFX thermocycler (Bio-Rad) and specific primer pairs. PCR amplification was performed with the following method: Denaturation for 5 minutes at 94° C., followed by 29 cycles of [1 minute at 94° C., 1 minute at 55° C., 30 seconds at 72° C.] for amplification, then a final elongation step for 7 minutes at 72° C. Sample fluorescence is measured at the end of each cycle and denaturation curves were analysed with CFX Manager™ software (Bio-Rad). Gene expression was normalised by expression of a 5S RNA housekeeping gene.

[6] = tested on: CRISPR-Cas system genes in Chromobacterium violaceum CV12472; assay: Gene expression of the CRISPR-Cas system (RT-PCR); format: cell-based; conditions: C. violaceum CV12472; vs inactive SsoPox-5A8
Protocol: as §4, §5
RNAs were extracted and purified with the PureLink® RNA mini kit (ThermoFisher) according to the supplier's recommendations and then treated with the TURBO DNA-free™ kit (ThermoFisher) to remove genomic DNA contamination. Samples were checked for quality by 1.5% agarose gel migration and the amount of nucleic acid was measured with a NanoDrop 2000 spectrophotometer (Thermo Scientific) at OD260 nm. […] RT-PCR was then performed using the LuminoCt® SYBR® Green qPCR ReadyMix™ kit and a CFX thermocycler (Bio-Rad) and specific primer pairs. […] Sample fluorescence is measured at the end of each cycle and denaturation curves were analysed with CFX Manager™ software (Bio-Rad). […]

For `OO` [H2O2], the MBEC ([1]; with SsoPox W263I 0.5 mg/mL) was 10 mM, the MBEC ([1]; without SsoPox W263I) was 100 mM and the “factor of decrease of the concentration required to eliminate the biofilms in presence of SsoPox-W263I” value (from here on “factor of decrease … of SsoPox-W263I”) [1] was 10. For the same molecule, the “bacteria recovered from the biofilm” value (P. aeruginosa biofilms; without the lactonase) was 104-105 bacterial cells and the “antiseptic required to completely eradicate the biofilm” value [2] was 100 mM.

Gentamicin was tested, and the MBEC ([1]; with SsoPox W263I 0.5 mg/mL) was 2 µg/mL, the MBEC ([1]; without SsoPox W263I) was 20 µg/mL and the “factor of decrease … of SsoPox-W263I” value [1] was 10.

`CN(C)S(=O)(=O)N(SC(F)(Cl)Cl)c1ccccc1` [Preventol A4S, Dichlofluanide] gave an MBEC ([3]; with SsoPox W263I 0.5 mg/mL) greater than 10 µM and an MBEC ([3]; without SsoPox W263I) of less than 200 µM.

For `NC[C@H]1O[C@H](O[C@H]2[C@H](O)[C@@H](O[C@H]3O[C@H](CO)[C@@H](O)[C@H](N)[C@H]3O)[C@H](N)C[C@@H]2N)[C@H](N)C[C@@H]1O` [Tobramycin], the MBEC ([1]; with SsoPox W263I 0.5 mg/mL) was 1 µg/mL, the MBEC ([1]; without SsoPox W263I) was 10 µg/mL and the “factor of decrease … of SsoPox-W263I” value [1] was 10.

B1: SsoPox-W263I: mutated hyperthermophilic lactonase of Sulfolobus solfataricus (SsoPox), tryptophan at position 263 substituted by isoleucine, SEQ ID NO: 2 (protein, listed as Sulfolobus solfataricus)
chain: MRIPLVGKDSIESKDIGFTLIHEHLRVFSEAVRQQWPHLYNEDEEFRNAVNEVKRAMQFGVKTIVDPTVMGLGRDIRFMEKVVKATGINLVAGTGIYIYIDLPFYFLNRSIDEIADLFIHDIKEGIQGTLNKAGFVKIAADEPGITKDVEKVIRAAAIANKETKVPIITHSNAHNNTGLEQQRILTEEGVDPGKILIGHLGDTDNIDYIKKIADKGSFIGLDRYGLDLFLPVDKRNETTLRLIKDGYSDKIMISHDYCCTIDIGTAKPEYKPKLAPRWSITLIFEDTIPFLKRNGVNEEVIATIFKENPKKFFS
In the case of B1, the “decrease in number of bacteria recovered from biofilms” value (P. aeruginosa biofilms; 0.7 mM NaOCl and SsoPox-W263I, compared to NaOCl alone) is reported as 2 Log, the “bacteria recovered from the biofilm” value (P. aeruginosa biofilms; biofilm formed with SsoPox-W263I) is reported as “no bacteria are recovered; also recorded: significantly reduces” and the “number of bacteria recovered from the biofilm, combination vs either agent alone” value (P. aeruginosa biofilms; sodium hypochlorite in combination with W263I mutated lactonase) is reported as “significantly reduces”. The “number of bacteria recovered from biofilms” value (P. aeruginosa biofilms; without NaOCl treatment, with vs without W263I mutated lactonase) was “same number of bacteria”, the “number of bacteria recovered from biofilms” value (P. aeruginosa biofilms; without antiseptic treatment, with vs without SsoPox-W263I) was “same number of bacteria” and the “sensitivity of bacteria to Intesti phage cocktail (number of bacteria counted)” value (“sensitivity of bacteria” for short) [4] was “more sensitive”. The “sensitivity of bacteria” value ([4]; listed as W263I mutated lactonase) was “satisfactory results”, the “expression of CRISPR-Cas genes” value ([5]; P. aeruginosa PA14) was “completely abolished” and the “expression of the csy1-4 genes” value ([5]; clinical isolate A11) was “significantly reduced”. For the same molecule, the “factor of decrease of CRISPR-Cas gene expression” value ([5]; clinical isolate B10) was 5.5, the “factor of decrease of CRISPR-Cas gene expression” value ([5]; clinical isolate C11) was 8 and the “expression of the csy1-4 genes” value ([5]; clinical isolate D10) was “significantly reduced”. For the same molecule, the “factor of increase of CRISPR-Cas gene expression, on average” value ([5]; clinical isolate F3) was 1.7 and the “expression of the cas3 and csy2-4 genes” value [6] was “significantly reduced”.

B2: SsoPox-5A8: inactive variant of SsoPox (V27G/P67Q/L72C/Y97S/Y99A/T177D/R223L/L226Q/L228M/W263H) (protein, UniProt Q97VT7 1-314, looked up, variant V27G P67Q L72C Y97S Y99A T177D R223L L226Q L228M W263H)
Aryldialkylphosphatase: MRIPLVGKDSIESKDIGFTLIHEHLRGFSEAVRQQWPHLYNEDEEFRNAVNEVKRAMQFGVKTIVDQTVMGCGRDIRFMEKVVKATGINLVAGTGISIAIDLPFYFLNRSIDEIADLFIHDIKEGIQGTLNKAGFVKIAADEPGITKDVEKVIRAAAIANKETKVPIITHSNAHNNDGLEQQRILTEEGVDPGKILIGHLGDTDNIDYIKKIADKGSFIGLDLYGQDMFLPVDKRNETTLRLIKDGYSDKIMISHDYCCTIDHGTAKPEYKPKLAPRWSITLIFEDTIPFLKRNGVNEEVIATIFKENPKKFFS
For B2, the “sensitivity of bacteria” value [4] was “little impacted”.
